T1: TNFR1 (Homo sapiens, UniProt P19438)
T1 chain: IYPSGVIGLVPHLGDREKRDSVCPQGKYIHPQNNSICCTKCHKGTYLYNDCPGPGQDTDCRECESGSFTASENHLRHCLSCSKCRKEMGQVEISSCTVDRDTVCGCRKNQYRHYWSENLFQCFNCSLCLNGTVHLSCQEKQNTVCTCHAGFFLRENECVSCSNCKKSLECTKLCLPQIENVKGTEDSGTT


Molecular target: T1, TNFR1
Test: yeast display SC50

Binder	apparent Kd (screen)
R14Y (designed binder) MTLQELLREEALRYAEAEAFRYALELLAEKFPEQKEYLLDLAEEIESQIRSLSGVDVEDVRKFLDKEWAWVKELLAEHPAELAEVEAARAARLAELRAEVEAKVAA	0.49 nM
E29F (designed binder) MTLQELLREEALRRAEAEAFRYALELLAFKFPEQKEYLLDLAEEIESQIRSLSGVDVEDVRKFLDKEWAWVKELLAEHPAELAEVEAARAARLAELRAEVEAKVAA	0.653 nM
L12R (designed binder) MTLQELLREEARRRAEAEAFRYALELLAEKFPEQKEYLLDLAEEIESQIRSLSGVDVEDVRKFLDKEWAWVKELLAEHPAELAEVEAARAARLAELRAEVEAKVAA	0.49 nM
L26V (designed binder) MTLQELLREEALRRAEAEAFRYALEVLAEKFPEQKEYLLDLAEEIESQIRSLSGVDVEDVRKFLDKEWAWVKELLAEHPAELAEVEAARAARLAELRAEVEAKVAA	0.79 nM
L64Y (designed binder) MTLQELLREEALRRAEAEAFRYALELLAEKFPEQKEYLLDLAEEIESQIRSLSGVDVEDVRKFYDKEWAWVKELLAEHPAELAEVEAARAARLAELRAEVEAKVAA	0.49 nM
L52K (designed binder) MTLQELLREEALRRAEAEAFRYALELLAEKFPEQKEYLLDLAEEIESQIRSKSGVDVEDVRKFLDKEWAWVKELLAEHPAELAEVEAARAARLAELRAEVEAKVAA	1.05 nM
A98Q (designed binder) MTLQELLREEALRRAEAEAFRYALELLAEKFPEQKEYLLDLAEEIESQIRSLSGVDVEDVRKFLDKEWAWVKELLAEHPAELAEVEAARAARLAELRQEVEAKVAA	0.653 nM
E5A (designed binder) MTLQALLREEALRRAEAEAFRYALELLAEKFPEQKEYLLDLAEEIESQIRSLSGVDVEDVRKFLDKEWAWVKELLAEHPAELAEVEAARAARLAELRAEVEAKVAA	0.79 nM
R8H (designed binder) MTLQELLHEEALRRAEAEAFRYALELLAEKFPEQKEYLLDLAEEIESQIRSLSGVDVEDVRKFLDKEWAWVKELLAEHPAELAEVEAARAARLAELRAEVEAKVAA	0.869 nM
P32K (designed binder) MTLQELLREEALRRAEAEAFRYALELLAEKFKEQKEYLLDLAEEIESQIRSLSGVDVEDVRKFLDKEWAWVKELLAEHPAELAEVEAARAARLAELRAEVEAKVAA	0.653 nM
L93Q (designed binder) MTLQELLREEALRRAEAEAFRYALELLAEKFPEQKEYLLDLAEEIESQIRSLSGVDVEDVRKFLDKEWAWVKELLAEHPAELAEVEAARAARQAELRAEVEAKVAA	0.539 nM
K62H (designed binder) MTLQELLREEALRRAEAEAFRYALELLAEKFPEQKEYLLDLAEEIESQIRSLSGVDVEDVRHFLDKEWAWVKELLAEHPAELAEVEAARAARLAELRAEVEAKVAA	0.718 nM
S47F (designed binder) MTLQELLREEALRRAEAEAFRYALELLAEKFPEQKEYLLDLAEEIEFQIRSLSGVDVEDVRKFLDKEWAWVKELLAEHPAELAEVEAARAARLAELRAEVEAKVAA	0.49 nM
K72A (designed binder) MTLQELLREEALRRAEAEAFRYALELLAEKFPEQKEYLLDLAEEIESQIRSLSGVDVEDVRKFLDKEWAWVAELLAEHPAELAEVEAARAARLAELRAEVEAKVAA	0.869 nM
R61L (designed binder) MTLQELLREEALRRAEAEAFRYALELLAEKFPEQKEYLLDLAEEIESQIRSLSGVDVEDVLKFLDKEWAWVKELLAEHPAELAEVEAARAARLAELRAEVEAKVAA	0.539 nM
A15Q (designed binder) MTLQELLREEALRRQEAEAFRYALELLAEKFPEQKEYLLDLAEEIESQIRSLSGVDVEDVRKFLDKEWAWVKELLAEHPAELAEVEAARAARLAELRAEVEAKVAA	0.718 nM
M1N (designed binder) NTLQELLREEALRRAEAEAFRYALELLAEKFPEQKEYLLDLAEEIESQIRSLSGVDVEDVRKFLDKEWAWVKELLAEHPAELAEVEAARAARLAELRAEVEAKVAA	0.49 nM

Binder	apparent Kd (screen)
L7R (designed binder) MTLQELRREEALRRAEAEAFRYALELLAEKFPEQKEYLLDLAEEIESQIRSLSGVDVEDVRKFLDKEWAWVKELLAEHPAELAEVEAARAARLAELRAEVEAKVAA	8.56 nM
V85G (designed binder) MTLQELLREEALRRAEAEAFRYALELLAEKFPEQKEYLLDLAEEIESQIRSLSGVDVEDVRKFLDKEWAWVKELLAEHPAELAEGEAARAARLAELRAEVEAKVAA	0.718 nM
E73W (designed binder) MTLQELLREEALRRAEAEAFRYALELLAEKFPEQKEYLLDLAEEIESQIRSLSGVDVEDVRKFLDKEWAWVKWLLAEHPAELAEVEAARAARLAELRAEVEAKVAA	0.653 nM
I49G (designed binder) MTLQELLREEALRRAEAEAFRYALELLAEKFPEQKEYLLDLAEEIESQGRSLSGVDVEDVRKFLDKEWAWVKELLAEHPAELAEVEAARAARLAELRAEVEAKVAA	1.05 nM
P32C (designed binder) MTLQELLREEALRRAEAEAFRYALELLAEKFCEQKEYLLDLAEEIESQIRSLSGVDVEDVRKFLDKEWAWVKELLAEHPAELAEVEAARAARLAELRAEVEAKVAA	0.539 nM
L24K (designed binder) MTLQELLREEALRRAEAEAFRYAKELLAEKFPEQKEYLLDLAEEIESQIRSLSGVDVEDVRKFLDKEWAWVKELLAEHPAELAEVEAARAARLAELRAEVEAKVAA	11.4 nM
K72T (designed binder) MTLQELLREEALRRAEAEAFRYALELLAEKFPEQKEYLLDLAEEIESQIRSLSGVDVEDVRKFLDKEWAWVTELLAEHPAELAEVEAARAARLAELRAEVEAKVAA	0.718 nM
L93D (designed binder) MTLQELLREEALRRAEAEAFRYALELLAEKFPEQKEYLLDLAEEIESQIRSLSGVDVEDVRKFLDKEWAWVKELLAEHPAELAEVEAARAARDAELRAEVEAKVAA	0.869 nM
Q34N (designed binder) MTLQELLREEALRRAEAEAFRYALELLAEKFPENKEYLLDLAEEIESQIRSLSGVDVEDVRKFLDKEWAWVKELLAEHPAELAEVEAARAARLAELRAEVEAKVAA	0.539 nM
P79G (designed binder) MTLQELLREEALRRAEAEAFRYALELLAEKFPEQKEYLLDLAEEIESQIRSLSGVDVEDVRKFLDKEWAWVKELLAEHGAELAEVEAARAARLAELRAEVEAKVAA	0.956 nM
L93W (designed binder) MTLQELLREEALRRAEAEAFRYALELLAEKFPEQKEYLLDLAEEIESQIRSLSGVDVEDVRKFLDKEWAWVKELLAEHPAELAEVEAARAARWAELRAEVEAKVAA	0.539 nM
E18F (designed binder) MTLQELLREEALRRAEAFAFRYALELLAEKFPEQKEYLLDLAEEIESQIRSLSGVDVEDVRKFLDKEWAWVKELLAEHPAELAEVEAARAARLAELRAEVEAKVAA	0.539 nM
A102Q (designed binder) MTLQELLREEALRRAEAEAFRYALELLAEKFPEQKEYLLDLAEEIESQIRSLSGVDVEDVRKFLDKEWAWVKELLAEHPAELAEVEAARAARLAELRAEVEQKVAA	0.539 nM
D59K (designed binder) MTLQELLREEALRRAEAEAFRYALELLAEKFPEQKEYLLDLAEEIESQIRSLSGVDVEKVRKFLDKEWAWVKELLAEHPAELAEVEAARAARLAELRAEVEAKVAA	0.869 nM
Q48M (designed binder) MTLQELLREEALRRAEAEAFRYALELLAEKFPEQKEYLLDLAEEIESMIRSLSGVDVEDVRKFLDKEWAWVKELLAEHPAELAEVEAARAARLAELRAEVEAKVAA	1.16 nM
K35M (designed binder) MTLQELLREEALRRAEAEAFRYALELLAEKFPEQMEYLLDLAEEIESQIRSLSGVDVEDVRKFLDKEWAWVKELLAEHPAELAEVEAARAARLAELRAEVEAKVAA	0.446 nM
L41F (designed binder) MTLQELLREEALRRAEAEAFRYALELLAEKFPEQKEYLLDFAEEIESQIRSLSGVDVEDVRKFLDKEWAWVKELLAEHPAELAEVEAARAARLAELRAEVEAKVAA	0.79 nM
